Test [1] concerns the target human von Willebrand factor, FVIII-free, plasma derived (human) (UniProt P04275). The test is described as follows: SPR (BIAcore), hvWf as ligand, FVIII protein as analyte, N=5. Background: Surface plasmon resonance follows binding to a sensor surface in real time, without labels.
Test [2] has the same target. As to the kind of experiment: SPR (BIAcore), binding to vWF.
Test [3] has the same target. The test is described as follows: SPR (BIAcore), single-cycle kinetics 0.13-5.0 nM, plasma derived human vWF immobilized by amine coupling, 1:1 model, N=6.

Usually Kd stands for the constant that tells how readily two partners part at equilibrium. In general, koff refers to the rate constant with which the complex falls apart. As usually defined, the kon is the second-order rate constant of association. In test [1], “rBDD FVIII (recombinant B-domain deleted FVIII lacking Fc moieties) (from UniProt P00451 20-1667; P00451 1668-2351)” displayed a Kd of 0.846 nM, a koff of 0.00114 s⁻¹ and an on-rate constant (kon) of 1.37e+06 M⁻¹ s⁻¹.

In test [2], “rFVIIIFc (recombinant B-domain deleted human FVIII-Fc monomer hybrid), drug substance (from UniProt P00451 20-1667; P0DOX5 223-449) (Fc fusion)” came in with a fold difference in affinity (KD) against rBDD FVIII of 2 fold, a fold difference in on-rate against rBDD FVIII of 2 fold and a fold of KD against BDD FVIII alone of 2 fold. In test [1], this substance displayed a dissociation constant Kd of 1.64 nM, a koff of 0.00125 s⁻¹ and a kon of 792000 M⁻¹ s⁻¹. Moreover, in test [3], the Kd came out at 0.34 nM, the koff amounted to 0.00089 s⁻¹ and the kon amounted to 2.6e+06 M⁻¹ s⁻¹.

The values above are taken from US20140294821A1.
